Reference: patent US20110091971A1, “Differentiation of Pluripotent Stem Cells” (priority 2008, published 2011)

How the values were obtained:
[1] = system: Human Embryonic Stem Cells (H1 hESC line); assay: High content analysis of cell number, PDX1 and CDX2 protein expression at conclusion of third step of differentiation (Example 12); assay type: cell-based; details: end of third step; peptide given during first step; compared with commercial activin A or ACTN1
Procedure: (§1) At the conclusion of the first step of the differentiation protocol, replicate sets of parallel wells for each treatment group were subjected to further step-wise differentiation. It is important to note that after the first three days, all wells undergoing continuing culture and differentiation received the same treatment. The protocol for this continuing differentiation is described below.
During the second step of differentiation, cultures were grown for two days in DMEM:F12 medium (Invitrogen; Cat #11330-032) supplemented with 2% Albumin Bovine Fraction V, Fatty Acid Free (FAF BSA) (MP Biomedicals, Inc; Cat #152401), 50 ng/ml FGF7 (PeproTech; Cat #100-19), and 250 nM cyclopamine (Calbiochem; Cat #239804). Medium in each well was aspirated and replaced with a fresh aliquot (0.5 ml) on both days.
Step 3 of the differentiation protocol was carried out over four days. Cells were fed daily by aspirating medium from each well and replacing with a fresh aliquot (0.5 ml) of DMEM-high glucose (Invitrogen; Cat #10569) supplemented with 1% B27 (Invitrogen; Cat #17504-044), 50 ng/ml FGF7, 100 ng/ml Noggin (R&D Systems; Cat #3344-NG), 250 nM KAAD-cyclopamine (Calbiochem; Cat #239804), and 2 μM all-trans retinoic acid (RA) (Sigma-Aldrich; Cat #R2625). At the conclusion of the third step of differentiation, cells from some wells were harvested for analysis by RT-PCR to measure markers of differentiation. Other culture wells were subjected to high content image analysis for protein expression levels of PDX1, a transcription factor correlated with pancreatic endoderm differentiation, and CDX2, a transcription factor associated with intestinal endoderm.
High Content Analysis: At the conclusion of three days of culture, assay plates were washed once with PBS (Invitrogen; Cat #14190), fixed with 4% paraformaldehyde (Alexis Biochemical; Cat #ALX-350-011) at room temperature for 20 minutes, then washed three times with PBS and permeabilized with 0.5% Triton X-100 (Sigma; Cat #T8760-2) for 20 minutes at room temperature. Cells were washed again three times with PBS and blocked with 4% chicken serum (Invitrogen; Cat #16110082) in PBS for 30 minutes at room temperature. Primary antibody (goat anti-human SOX17; R&D Systems; Cat #AF1924) was diluted 1:100 in 4% chicken serum and added to each well for two hours at room temperature. […]
Imaging was performed using an IN Cell Analyzer 1000 (GE Healthcare) utilizing the 51008bs dichroic for cells stained with Hoechst 33342 and Alexa Fluor 488. […] Segmentation for the nuclei was determined based on gray-scale levels (baseline range 100-300) and nuclear size. Averages and standard deviations were calculated for each replicate data set. […]

[2] = system: Human Embryonic Stem Cells (H1 hESC line); assay: RT-PCR of PDX1 and CDX2 at conclusion of third step of differentiation (Example 12); assay type: cell-based; details: end of third step; peptide given during first step
Text: as §1, with “below. […]” for “below.”
RT-PCR Analysis: RNA samples were purified by binding to a silica-gel membrane (Rneasy Mini Kit, Qiagen, CA) in the presence of an ethanol-containing, high-salt buffer followed by washing to remove contaminants. […] Yield and purity were assessed by A260 and A280 readings on a spectrophotometer. […]
Unless otherwise stated, all reagents were purchased from Applied Biosystems. […] For each primer/probe set, a Ct value was determined as the cycle number at which the fluorescence intensity reached a specific value in the middle of the exponential region of amplification. Relative gene expression levels were calculated using the comparative Ct method. […] The normalized amount of target was calculated as 2-ΔCt, assuming amplification to be 100% efficiency. […]

Molecule	cell numbers [1]	protein expression of PDX1 and CDX2 [1]	RT-PCR results for PDX1 and CDX2 [2]
ACTN4: activin A variant peptide, SEQ ID 5 (protein) GLECDGKVNLCCKKQLFVSFKDIGWNDWIIAPSGYHANHCSGLCPSHIAGTSGSSLSFHSTVINHYRMRGHSPFSDMGACCVPTKLRPMSMLYYDDGQNIIKKDIQNMIVEECGCS	equivalent cell numbers	equivalent protein expression	in agreement
ACTN48: activin A variant peptide, SEQ ID 49 (protein) GLECDGKVNLCCKKQNFVSFKDIGWNDWIIAPSGYHANECSGLCPSHIAGTSGSSLSFHSTVINHYRMRGHSPFANMGACCIPTKLRPMSMLYYDDGQNIIKKDIQNMIVEECGCS	equivalent cell numbers	equivalent protein expression	in agreement
